Substrate in the series: CC(=O)Oc1ccc([N+](=O)[O-])cc1
Description: purified protein. It counts as biochemical, Pseudideonella sakaiensis. The conditions noted are these: 100 mM potassium phosphate pH 7, 25 °C, 1-20 mM 4-NPA, acetonitrile from substrate stock.

The source of these data is publication PMC11587651, “Increased cytoplasmic expression of PETase enzymes in E. coli” (Microbial Cell Factories, 2024).

B1: IsPETase (Pseudideonella sakaiensis; D186H/K252M/K95N/M154G/N212K/N233C/N241C/P181V/Q119K/Q182M/R224L/R280A/R90T/S121E/S207R/S213E/S214Y/S282C/S58A/S61V/T270Q) (protein)
chain: AQTNPYARGPNPTAASLEASAGPFTVRSFTVARPVGYGAGTVYYPTNAGGTVGAIAIVPGYTATQSSINWWGPRLASHGFVVITIDTNSTLDKPESRSSQQMAALRQVASLNGTSSSPIYGKVDTARGGVMGWSMGGGGSLISAANNPSLKAAAVMAPWHSSTNFSSVTVPTLIFACENDRIAPVKEYALPIYDSMSLNAKQFLEICGGSHSCACSGNSNQALIGMKGVAWMKRFMDNDTRYSQFACENPNSTAVCDFRTANCS
notes: expressed in E. coli SHuffle T7 Express; IMAC purified; monomeric by SEC
The term Km denotes the substrate concentration at which the rate is half of its maximum. In general, kcat refers to the number of substrate molecules converted per active site and unit of time at saturation. With B1, where the note is “Hot-PETase”, the Michaelis constant (Km) was found to be 9.61 ± 0.91 mM and the catalytic constant (kcat) was found to be 33.0 ± 1.5 s⁻¹.

B2: IsPETase (Pseudideonella sakaiensis) (protein)
chain: AQTNPYARGPNPTAASLEASAGPFTVRSFTVSRPSGYGAGTVYYPTNAGGTVGAIAIVPGYTARQSSIKWWGPRLASHGFVVITIDTNSTLDQPSSRSSQQMAALRQVASLNGTSSSPIYGKVDTARMGVMGWSMGGGGSLISAANNPSLKAAAPQAPWDSSTNFSSVTVPTLIFACENDSIAPVNSSALPIYDSMSRNAKQFLEINGGSHSCANSGNSNQALIGKKGVAWMKRFMDNDTRYSTFACENPNSTRVSDFRTANCS
notes: as for B1
B2: the Michaelis constant (Km) was 8.16 ± 0.66 mM and the kcat was determined as 30.3 ± 1.1 s⁻¹.

B3: IsPETase (Pseudideonella sakaiensis; D186H/N233K/R224Q/R280A/S121E) (protein)
chain: AQTNPYARGPNPTAASLEASAGPFTVRSFTVSRPSGYGAGTVYYPTNAGGTVGAIAIVPGYTARQSSIKWWGPRLASHGFVVITIDTNSTLDQPESRSSQQMAALRQVASLNGTSSSPIYGKVDTARMGVMGWSMGGGGSLISAANNPSLKAAAPQAPWHSSTNFSSVTVPTLIFACENDSIAPVNSSALPIYDSMSQNAKQFLEIKGGSHSCANSGNSNQALIGKKGVAWMKRFMDNDTRYSTFACENPNSTAVSDFRTANCS
notes: as for B1
Take B3: under “FAST-PETase”, the Km amounted to 11.33 ± 1.11 mM and the kcat turned out to be 45.7 ± 2.3 s⁻¹.
